The supplement of paper PMC7877785
± gives the uncertainty stated by the source.

Experiment: self-splicing fitness, log relative to wild type (ln ratio); higher = more splicing; Tetrahymena group I intron in knt gene, E. coli kanamycin selection, DiMSum; sequences stand for … in CUCUCU…GGAGGGAAAAGUUAUCAGGCAUGCACCUGGUAGCUAGUCUUUAAACCAAUAGAUUGCAUCGGUUUAAAAGGCAAGACCGUCAAAUUGCGGGAAAGGGGUCAACAGCCGUUCAGUACCAAGUCUCAGGGGAAACUUUGAGAUGGCCUUGCAAAGGGUAUGGUAAUAAGCUGACGGACAUGGUCCUAACCACGCAGCCAAGUCCUAAGUCAACAGAUCUUCUGUUGAUAUGGAUGCAGUUCACAGACUAAAUGUCGGUCGGGGAAGAUGUAUUCUUCUCAUAAGAUAUAGUCGGACCUCUCCUUAAUGGGAGCUAGCGGAUGAAGUGAUGCAACACUGGAGCCGCUGGGAACUAAUUUGUAUGCGAAAGUAUAUUGAUUAGUUUUGGAGUACUCGUGGUCG
Summary of the method: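 Library with all eight P1ex-region intron nucleotides randomised, intron inside the knt kanamycin-resistance gene on pET-22b(+), in E. coli BL21(DE3). Cells grew overnight at 37°C or 30°C on LB agar with or without 25 μg/mL kanamycin (plus 100 μg/mL carbenicillin, 50 μM IPTG, 0.2% rhamnose), in six replicate transformations. Pooled colonies were amplicon-sequenced on Illumina HiSeq 2500. DiMSum fitness is the error-weighted combination of wild-type-normalised replicate fold changes, kanamycin versus none.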

Sequence	self-splicing fitness (ln) (30 °C)	self-splicing fitness (ln) (37 °C)
CCCAAGCAAUAUUACGAGGG	-4.18 ± 0.17	-2.53 ± 0.16
CCCAAGCAAUAUUACGAUAG	-2.95 ± 0.16	-2.54 ± 0.22
CCCAAGCAAUAUUACGAUUG	-3.88 ± 0.2	-2.78 ± 0.28
CCCAAGCAAUAUUACGCACA	-2.53 ± 0.2	-2.19 ± 0.31
CCCAAGCAAUAUUACGCCAA	-2.82 ± 0.16	-2.47 ± 0.2
CCCAAGCAAUAUUACGCCUG	-3.12 ± 0.19	-2.88 ± 0.27
CCCAAGCAAUAUUACGCGGG	-3.8 ± 0.17	-2.45 ± 0.18
CCCAAGCAAUAUUACGCUGA	-3.51 ± 0.25	-3.69 ± 0.34
CCCAAGCAAUAUUACGCUGU	-3.8 ± 0.15	-2.95 ± 0.17
CCCAAGCAAUAUUACGCUUA	-3.38 ± 0.22	-2.78 ± 0.21
CCCAAGCAAUAUUACGCUUC	-2.84 ± 0.18	-3.15 ± 0.43
CCCAAGCAAUAUUACGGCCA	-3.58 ± 0.31	-1.58 ± 0.16
CCCAAGCAAUAUUACGGGUU	-2.98 ± 0.12	-2.9 ± 0.2
CCCAAGCAAUAUUACGUACU	-3.84 ± 0.19	-2.46 ± 0.21
CCCAAGCAAUAUUACGUUAG	-4.82 ± 0.24	-3.02 ± 0.22
CCCAAGCAAUAUUACGUUUG	-4.1 ± 0.21	-2.82 ± 0.21
CCCCAGCAAUAUUACGACGA	-4.12 ± 0.39	-2.68 ± 0.27
CCCCAGCAAUAUUACGACGG	-3.1 ± 0.17	-3.42 ± 0.3
CCCCAGCAAUAUUACGCAGA	-4.17 ± 0.28	-3.54 ± 0.21
CCCCAGCAAUAUUACGCAGU	-3.25 ± 0.12	-2.71 ± 0.15
CCCCAGCAAUAUUACGCAUG	-3.67 ± 0.17	-2.75 ± 0.16
CCCCAGCAAUAUUACGCGCG	-2.69 ± 0.14	-2.97 ± 0.22
CCCCAGCAAUAUUACGCGGC	-2.98 ± 0.16	-3.16 ± 0.4
CCCCAGCAAUAUUACGCGUC	-3.21 ± 0.17	-2.92 ± 0.18

Sequence	self-splicing fitness (ln) (30 °C)	self-splicing fitness (ln) (37 °C)
CCCCAGCAAUAUUACGCUAU	-3.43 ± 0.15	-1.9 ± 0.13
CCCCAGCAAUAUUACGGCAC	-4.46 ± 0.42	-2.55 ± 0.29
CCCCAGCAAUAUUACGGCUU	-3.23 ± 0.21	-2.25 ± 0.23
CCCCAGCAAUAUUACGUAGC	-3.93 ± 0.16	-2.93 ± 0.2
CCCCAGCAAUAUUACGUAUU	-3.55 ± 0.16	-3.28 ± 0.28
CCCCAGCAAUAUUACGUGAA	-4.42 ± 0.13	-2.44 ± 0.099
CCCCAGCAAUAUUACGUGGA	-3.09 ± 0.086	-1.23 ± 0.068
CCCCAGCAAUAUUACGUUUC	-4.32 ± 0.28	-2.36 ± 0.23
CCCGAGCAAUAUUACGACAG	–	-2.46 ± 0.41
CCCGAGCAAUAUUACGACCA	–	-1.35 ± 0.31
CCCGAGCAAUAUUACGACCG	-4 ± 0.29	-2.24 ± 0.29
CCCGAGCAAUAUUACGACGG	-3.44 ± 0.17	-3.49 ± 0.27
CCCGAGCAAUAUUACGAGAG	-3.25 ± 0.2	-2.15 ± 0.36
CCCGAGCAAUAUUACGAGCG	-3.77 ± 0.29	-2.88 ± 0.27
CCCGAGCAAUAUUACGAUGC	-4.29 ± 0.46	-2.52 ± 0.38
CCCGAGCAAUAUUACGAUUA	-3.04 ± 0.24	-2.4 ± 0.21
CCCGAGCAAUAUUACGCAGC	–	-2.05 ± 0.42
CCCGAGCAAUAUUACGCGAC	-1.96 ± 0.29	-1.68 ± 0.29
CCCGAGCAAUAUUACGCUAA	-2.14 ± 0.27	-1.99 ± 0.2
CCCGAGCAAUAUUACGGACU	-2.57 ± 0.11	-2.19 ± 0.2
CCCGAGCAAUAUUACGGCCG	-4.1 ± 0.23	-3.14 ± 0.32
CCCGAGCAAUAUUACGGCGG	-3.49 ± 0.23	-1.66 ± 0.2
CCCGAGCAAUAUUACGGCUU	-3.29 ± 0.17	-2.71 ± 0.2
CCCGAGCAAUAUUACGGGAA	-4.33 ± 0.29	-2.39 ± 0.14
